# Results taken from the supplement of paper PMC10567573.
# B1: IQUB (parent)
# chain: EADYEDDSKIAFLMQLQDIQYLTE
# Variants of: B1
# Experiment: protein stability index of a GFP-peptide fusion (GPS, HEK-293T) (PSI 1-6); higher = more stable
# Settings: c terminus: a fixed tail appended
# 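Note: lentivirally expressed fusions sorted by FACS into six bins by GFP to DsRed ratio, PSI derived from sequencing read proportions per bin multiplied by bin number.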
row,Variant,protein stability index
1,Y4Q,3.78
2,Y4V,3.18
3,Y4C,3.27
4,Y4G,3.61
5,E5P,2.79
6,E5L,2.43
7,E5Q,2.62
8,D3V,2.51
9,D3H,2.17
10,D3L,2.02
11,D3N,2.87
12,D3K,2.58
13,D3Y,1.83
14,D3A,2.1
15,D3R,2.34
16,D3I,1.97
17,D3G,2.77
18,D3P,1.98
19,D3C,1.69
20,D3Q,2.23
21,Y21R,2.99
22,Y21F,2.78
23,Y21Q,3.64
24,Y21N,3.87

row,Variant,protein stability index
1,Y21H,3.55
2,A2V,2.99
3,A2K,2.89
4,A2H,2.51
5,A2R,2.44
6,A2W,2.17
7,A2S,2.89
8,A2D,3.53
9,Q17Y,2.51
10,Q17W,2.02
11,Q17N,3.5
12,Q17P,3.21
13,Q17I,1.76
14,Q17D,3.73
15,Q15H,2.44
16,Q15V,1.76
17,Q15R,2.89
18,Q15L,2.04
19,Q15S,2.46
20,Q15D,3.1
21,Q15T,2.19
22,Q15E,3.36
23,D6W,1.83
24,D6R,2.09

row,Variant,protein stability index
1,D6E,2.88
2,D6S,2.7
3,D6T,2.25
4,D6Q,2.57
5,D6Y,1.86
6,D6L,1.53
7,L13Y,2.84
8,L13F,2.85
9,L13C,3.5
10,L13E,4.54
11,L13K,4.11
12,L13V,3.12
13,L13R,3.88
14,L13Q,4.34
15,Q20I,2.64
16,Q20N,3.22
17,Q20V,2.19
18,Q20E,3.98
19,Q20K,3.46
20,Q20G,2.97
21,Q20H,3.12
22,Q20D,3.86
23,Q20S,3.61
24,Q20L,1.69

row,Variant,protein stability index
1,K9D,3.63
2,K9H,3.36
3,K9G,2.81
4,K9F,2.32
5,K9L,2.58
6,K9W,2.61
7,K9S,3.06
8,M14T,4.04
9,M14A,3.4
10,M14K,3.77
11,M14Q,4.23
12,F12V,3.54
13,F12E,5.06
14,F12S,4.61
15,F12P,4.75
16,F12H,4.62
17,F12C,4.29
18,F12K,4.51
19,F12I,3.19
20,F12L,2.96
21,F12M,4.05
22,I10K,4.01
23,I10E,4.43
24,I10T,3.5

row,Variant,protein stability index
1,I10Q,4.12
2,I10P,4.53
3,I10F,2.9
4,I10Y,2.76
5,I10C,3.34
6,I10M,3.2
7,I19V,3.86
8,I19M,3.68
9,I19H,3.98
10,I19Y,3.54
11,I19D,4.94
12,I19G,4.31
13,I19N,3.98
14,L22V,3.42
15,L22R,3.94
16,L22I,3.62
17,L22T,3.96
18,L22C,3.67
19,L22N,4.65
20,E24F,1.92
21,E24S,2.71
22,E24Y,2.36
23,E24G,2.89
24,E24C,2.33

row,Variant,protein stability index
1,S8N,3.53
2,S8E,3.21
3,S8R,2.88
4,S8H,3.44
5,S8M,2.7
6,S8T,3.07
7,S8K,3.34
8,D7H,2.98
9,D7K,2.38
10,D7F,1.17
11,D7A,2.48
12,D7S,2.47
13,D7L,1.89
14,D7T,2.19
15,D7R,2.87
16,L16G,4.76
17,L16R,3.99
18,L16P,4.37
19,L16Y,3.64
20,L16W,3.25
21,D18V,2.22
22,D18M,1.83
23,D18R,2.32
24,D18W,2.2

row,Variant,protein stability index
1,E1D,3.56
2,E1A,2.95
3,E1R,2.44
4,E1Y,2.23
5,E1G,2.79
6,A11D,4.07
7,A11N,3.77
8,A11E,3.39
9,A11V,2.24
10,A11S,2.94
11,A11P,3.82
12,A11I,1.99
13,A11Q,3.49
14,T23N,3.89
15,T23Y,2.21
16,T23D,4.09
17,T23E,4.16
18,T23Q,3.89
19,T23R,3.29
20,T23W,1.97
21,T23V,1.92
22,T23F,1.98
23,T23I,1.54
